According to CN110840830A (BEIJING DONGFANG BIOTECH CO LTD, dated 2020):

T1: 细胞表面CTLA-4抗原 (CTLA-4 on cells) (UniProt P16410 36-223, limits assumed)
T1 construct: whole, on cells; Also used as the target of the mixed lymphocyte reaction rows, where CTLA-4 stands on primary CD4+ T cells; also called 细胞表达的CTLA-4抗原; 过表达CTLA-4抗原的CHO细胞
T1 sequence (looked up): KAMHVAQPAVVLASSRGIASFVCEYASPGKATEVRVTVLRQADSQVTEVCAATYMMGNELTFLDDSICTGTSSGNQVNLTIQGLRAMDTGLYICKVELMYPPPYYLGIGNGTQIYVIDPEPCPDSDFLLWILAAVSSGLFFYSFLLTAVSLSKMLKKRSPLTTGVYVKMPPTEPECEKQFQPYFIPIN

T2: CTLA-4 (antigen coated on ELISA plates and immunotubes) (UniProt P16410 36-161, limits assumed)
T2 construct: also called CTLA-4抗原; 细胞毒性T淋巴细胞相关抗原4
T2 sequence (looked up): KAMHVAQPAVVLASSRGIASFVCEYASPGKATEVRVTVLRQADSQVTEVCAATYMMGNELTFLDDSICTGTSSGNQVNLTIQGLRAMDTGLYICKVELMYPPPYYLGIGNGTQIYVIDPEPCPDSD


Key:
[1] = molecular target: T1, 细胞表面CTLA-4抗原 (CTLA-4 on cells); experiment: flow cytometry on CHO cells over-expressing CTLA-4, Alexa488 anti-human IgG Fc
[2] = molecular target: T1, 细胞表面CTLA-4抗原 (CTLA-4 on cells); experiment: cell-based or functional assay
[3] = molecular target: T2, CTLA-4 (antigen coated on ELISA plates …); experiment: ELISA, full antibody on coated CTLA-4, anti-human IgG-HRP

Binder	EC50 [1]	混合淋巴细胞反应(MLR), CD4+ T细胞增殖 (cck8), EC50 [2]	EC50 [3]
全抗N-2 (antibody, human IgG1, kappa, V domains shown, also called 抗CTLA-4全抗体N-2) VH: QVQLVESGGGVVQPGRSLRLSCAASGFTFSSIFKRWVRQAPGKGLEWVTFISYDGLDHINGDSVKGRFTISRDNSKNTLYLQMNSLRAEDTAIYYCARRYRWWGKAMDYWGQGTLVTVSS VL: DIVMTQSPLSLPVTPGEPASISCKSSQSVIDSKGYTYLGWYLQKPGQSPQLLIYLGTQKSSGVPDRFSGSGSGTDFTLKISRVEAEDVGVYYCLQRGHIPITFGQGTKLEIKR	8.95 ng/mL	8.31 nM	0.11 µg/mL
全抗N-8 (antibody, human IgG1, kappa, V domains shown, also called 抗CTLA-4全抗体N-8) VH: QVQLVESGGGVVQPGRSLRLSCAASGFTFSGFSICWVRQAPGKGLEWVTFISYDGLLFLIADSVKGRFTISRDNSKNTLYLQMNSLRAEDTAIYYCARRYRWWGKAMDYWGQGTLVTVSS VL: DIVMTQSPLSLPVTPGEPASISCRSSQTVFDSHGQTYLQWYLQKPGQSPQLLIYGASRQVSGVPDRFSGSGSGTDFTLKISRVEAEDVGVYYCMQVWHLPITFGQGTKLEIKR	6.49 ng/mL	7.32 nM	0.164 µg/mL
全抗N-3 (antibody, human IgG1, kappa, V domains shown, also called 抗CTLA-4全抗体N-3) VH: QVQLVESGGGVVQPGRSLRLSCAASGFTFSGIFSSWVRQAPGKGLEWVTFISYDSLKQKDGDSVKGRFTISRDNSKNTLYLQMNSLRAEDTAIYYCARRYRWWGKAMDYWGQGTLVTVSS VL: DIVMTQSPLSLPVTPGEPASISCKSSQSVIDSKGYTYLGWYLQKPGQSPQLLIYLGTQKSSGVPDRFSGSGSGTDFTLKISRVEAEDVGVYYCLQRGHIPITFGQGTKLEIKR	8.96 ng/mL	14.2 nM	0.264 µg/mL
全抗N-1 (antibody, human IgG1, kappa, V domains shown, also called 抗CTLA-4全抗体N-1) VH: QVQLVESGGGVVQPGRSLRLSCAASGFTFSGYNGNWVRQAPGKGLEWVTFISYDGLNDVKADSVKGRFTISRDNSKNTLYLQMNSLRAEDTAIYYCARRYRWWGKAMDYWGQGTLVTVSS VL: DIVMTQSPLSLPVTPGEPASISCKSSQSVIDSKGYTYLGWYLQKPGQSPQLLIYLGTQKSSGVPDRFSGSGSGTDFTLKISRVEAEDVGVYYCLQRGHIPITFGQGTKLEIKR	7.09 ng/mL	7.34 nM	0.163 µg/mL

Continued, values first:

EC50 [1]	混合淋巴细胞反应(MLR), CD4+ T细胞增殖 (cck8), EC50 [2]	EC50 [3]	Binder
7.05 ng/mL	6.67 nM	0.127 µg/mL	全抗N-6 (antibody, human IgG1, kappa, V domains shown, also called 抗CTLA-4全抗体N-6) VH: QVQLVESGGGVVQPGRSLRLSCAASGFTFSSNTLRWVRQAPGKGLEWVTFISYDSLFLDQGDSVKGRFTISRDNSKNTLYLQMNSLRAEDTAIYYCARRYRWWGKAMDYWGQGTLVTVSS VL: DIVMTQSPLSLPVTPGEPASISCRSSQTVFDSHGQTYLQWYLQKPGQSPQLLIYGASRQVSGVPDRFSGSGSGTDFTLKISRVEAEDVGVYYCMQVWHLPITFGQGTKLEIKR
7.92 ng/mL	6.31 nM	0.0865 µg/mL	全抗N-7 (antibody, human IgG1, kappa, V domains shown, also called 抗CTLA-4全抗体N-7) VH: QVQLVESGGGVVQPGRSLRLSCAASGFTFSGIYCNWVRQAPGKGLEWVTFISYDSILNVIADSVKGRFTISRDNSKNTLYLQMNSLRAEDTAIYYCARRYRWWGKAMDYWGQGTLVTVSS VL: DIVMTQSPLSLPVTPGEPASISCRSSQTVFDSHGQTYLQWYLQKPGQSPQLLIYGASRQVSGVPDRFSGSGSGTDFTLKISRVEAEDVGVYYCMQVWHLPITFGQGTKLEIKR
6.12 ng/mL	4.95 nM	0.0689 µg/mL	全抗N-5 (antibody, human IgG1, kappa, V domains shown, also called 抗CTLA-4全抗体N-5; N-5的全抗体) VH: QVQLVESGGGVVQPGRSLRLSCAASGFTFSGFFNRWVRQAPGKGLEWVTFISYDALKDFYADSVKGRFTISRDNSKNTLYLQMNSLRAEDTAIYYCARRYRWWGKAMDYWGPGTLVTVSS VL: DIVMTQSPLSLPVTPGEPASISCRSSQTVFDSHGQTYLQWYLQKPGQSPQLLIYGASRQVSGVPDRFSGSGSGTDFTLKISRVEAEDVGVYYCMQVWHLPITFGQGTKLEIKR
11.1 ng/mL	15.4 nM	0.0922 µg/mL	全抗N-4 (antibody, human IgG1, kappa, V domains shown, also called 抗CTLA-4全抗体N-4) VH: QVQLVESGGGVVQPGRSLRLSCAASGFTFSAFYNPWVRQAPGKGLEWVTFISYDGVYFHFGDSVKGRFTISRDNSKNTLYLQMNSLRAEDTAIYYCARRYRWWGKAMDYWGQGTLVTVSS VL: DIVMTQSPLSLPVTPGEPASISCKSSQSVIDSKGYTYLGWYLQKPGQSPQLLIYLGTQKSSGVPDRFSGSGSGTDFTLKISRVEAEDVGVYYCLQRGHIPITFGQGTKLEIKR
